Results published in the supplement of paper PMC10126150.
± gives the standard deviation of the averaged measurements.

Test system: ATP
Assay: switch fluorescence ratio, 500 uM ATP over buffer (Cy3 cluster intensity, sum of 5 cycles each) (fold (ratio)); higher = stronger signal-on switching upon ATP binding; sequences stand for … in TCGTCGGCAGCGTCAGATGTGTATAAGAGACAGTTTTTTTTTTTTTTTTTTTTTTTTT…TC
Conditions: aptamer strand: ATP DNA aptamer (quencher-CACCTGGGGGAGTATTGCGGAGGAAGG + anchor), 100 nM annealed; ATP concentration: 500 uM
Summary of the method: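 Between each of five buffer/ATP cycles, the flow-cell was stripped with NaOH and re-annealed. Each cycle imaged Cy3-labelled switching-strand clusters, annealed to 100 nM quencher-labelled ATP aptamer on a modified Illumina MiSeq flow-cell, first in selection buffer and then after 15 min with 500 uM ATP at 22 °C. The fluorescence ratio is summed target-cycle over summed buffer-cycle Cy3 intensity per cluster, averaged per switch-domain sequence, with clusters outside 100-1000 RFU excluded.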
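Further: ATP exposure 15 min at 22 °C before imaging.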

Sequence | switch fluorescence ratio
CCAGTGGTTT | 1.01 ± 0.012
TTGGGGATTA | 1.09 ± 0.18
GATGAAGGTT | 0.992 ± 0.027
GGGTCAGGGC | 1.06 ± 0.062
CTCGTCGTAT | 1.06 ± 0.05
GTTAGGCGGT | 1.01 ± 0.014
GAAATAAGTG | 1.04 ± 0.026
TTTATTCTTA | 0.9807 ± 0.0081
GCTTGCATTT | 1.02 ± 0.035
GGGTGTTGAC | 0.993 ± 0.018
TCGTTCAGGA | 0.995 ± 0.013
GGGGCACGTG | 0.995 ± 0.015
ACGGGGGAGT | 1.03 ± 0.019
ATGTTTGGTA | 1.003 ± 0.0015
TGGAGTTAGA | 0.996 ± 0.035
GGTTTCTTCG | 1.09 ± 0.1
CGTACTGTAA | 1.18 ± 0.03
TCTTTGGGGG | 1 ± 0.053
CGGGCTTCGA | 0.993 ± 0.013
AGGGGATAGT | 0.9659 ± 0.0091
GAGACTAGAT | 1.01 ± 0.017
TGAAGTAAGG | 1.03 ± 0.029
AACGGGAGAC | 2.52 ± 0.24
GCTTTTGGTG | 1.02 ± 0.032
TGTTGTAAAC | 1.05 ± 0.032

Sequence | switch fluorescence ratio
CGTATGGGGG | 1.07 ± 0.08
CTGGTTCAGA | 0.994 ± 0.013
ATGAAAACGT | 1 ± 0.014
CGATGAGTAA | 1 ± 0.029
GGTGGGTGTC | 0.974 ± 0.016
GGAGTTAATC | 1.04 ± 0.037
TCCAAGGGTA | 0.997 ± 0.025
TTTTTTGGCG | 1.02 ± 0.15
TTCAGACTTT | 0.996 ± 0.022
GAGATAGGGA | 1.01 ± 0.029
TTAATATTAT | 0.978 ± 0.013
GGTGCATGGC | 1.04 ± 0.04
CCCGGTACGG | 1.029 ± 0.0017
ATGTGGGGGA | 1.02 ± 0.015
GGTAAATATT | 0.9981 ± 0.0046
TTTGCAAACA | 1 ± 0.061
ATAAATTTTT | 1.01 ± 0.023
TCACGTAGGC | 1.04 ± 0.053
TTAAGGTAAA | 1.01 ± 0.049
TGCATGGGGG | 0.999 ± 0.044
TTATCTCTGG | 0.9776 ± 0.0076
ATCCTGCAGT | 1.15 ± 0.031
AAGAGAACGG | 1.04 ± 0.091
CTGGTTGGGA | 0.992 ± 0.013
CGCTAGGTTG | 1.01 ± 0.026

Sequence | switch fluorescence ratio
AGACTCTGGT | 0.969 ± 0.015
GAGGTGAGAG | 1.02 ± 0.058
GTGTTTAGCT | 0.992 ± 0.044
GACGTTGTGG | 1.03 ± 0.014
TGGCAGAGGC | 1.04 ± 0.038
TCGGGTTTAG | 1.04 ± 0.04
GGGGACTTAT | 1.02 ± 0.017
TCCGGCGGGA | 1.26 ± 0.32
TTTGGGGCGC | 1.01 ± 0.048
TTTGGATTAG | 0.9746 ± 0.0037
GGTGGCGGAA | 0.996 ± 0.037
CCTTTAGATG | 1.03 ± 0.04
CGTGGGGGGG | 1.02 ± 0.052
CCAAGCGGTA | 1.3 ± 0.026
TGTTTATGGT | 1.02 ± 0.017
ATAATGCAGG | 1 ± 0.032
GGTTTGATGT | 0.975 ± 0.023
TTCAAGGGTT | 1.07 ± 0.18
TCATAACTGC | 1.02 ± 0.029
AAATTTATGT | 0.972 ± 0.027
TAGTGGACTC | 1.02 ± 0.034
AGGGGGGGCG | 0.975 ± 0.05
TACGGAGATT | 1.01 ± 0.035
GACCTTAATG | 1.05 ± 0.013
CGTCTAGACT | 1.018 ± 0.0036

Sequence | switch fluorescence ratio
GATATTTTAG | 1.009 ± 0.0087
GCTGGGGGGA | 0.981 ± 0.033
TTTTGGTGTT | 1.02 ± 0.036
TAAAAAACCT | 1.57 ± 0.39
TATCGGTTGT | 1.03 ± 0.015
CGGTGGTTGA | 1.01 ± 0.053
CAGGGGCAGC | 0.927 ± 0.05
GTTTTAAGCT | 1.023 ± 0.0058
GTTTGTTTTT | 0.976 ± 0.032
TTTTCTGTAT | 1.03 ± 0.052
TTTTTCACCG | 1.07 ± 0.079
ATGTCATGCG | 1.02 ± 0.045
CGATTGCATG | 1.05 ± 0.017
AGGAGTTGGG | 0.97 ± 0.046
CTAATGGTAT | 0.991 ± 0.022
TTTTGGCGCG | 1 ± 0.061
ATCATATATC | 0.983 ± 0.089
ACCTGGGCAG | 1.07 ± 0.015
CTTATCTCTG | 1.05 ± 0.019
ACTTCTAGGC | 1.02 ± 0.058
AACCACGTTA | 1.09 ± 0.053
TGGTCGTTCT | 1.03 ± 0.033
GCATGAACAT | 0.98 ± 0.026
CGTTTTCAGA | 0.9966 ± 0.0015
ACATGGGTT | 1.04 ± 0.05

Sequence | switch fluorescence ratio
CTTAGCCTTT | 0.983 ± 0.016
TTTTCCTAAC | 0.999 ± 0.071
ATTTGGGCCA | 1.02 ± 0.022
TGTAGGAGAC | 1.24 ± 0.33
TTTCAAAAGT | 1.006 ± 0.006
AGTAGTTTCG | 0.983 ± 0.037
TAGTAGGGTG | 1.03 ± 0.036
AAAAAAGACG | 1.05 ± 0.017
TGCGACGATG | 1.03 ± 0.027
AAGGGGGGAG | 0.986 ± 0.026
AAGGGCGAGC | 0.985 ± 0.1
TTATAATCTG | 0.986 ± 0.064
TGTAGTATGT | 1 ± 0.012
GGGGTATTAT | 1 ± 0.028
TGGGTTTCTT | 1.016 ± 0.0055
GTTATTGAGT | 1.007 ± 0.0089
TTAGGGTG | 0.992 ± 0.03
GGATTGTAGG | 0.9738 ± 0.0053
TGAGCTCACG | 1.02 ± 0.027
TTCTGTTAGA | 1 ± 0.012
AGGGTCTGTA | 0.939 ± 0.015
TTTTCGACGA | 1.27 ± 0.3
TTTGCAGGGA | 1.06 ± 0.1
ATGTAACTTA | 1.03 ± 0.027
TGTAAAAAGT | 1 ± 0.026

Sequence | switch fluorescence ratio
GGGTGGGAAT | 1.01 ± 0.043
TAGGTAACCG | 0.943 ± 0.056
ATGTAACGAG | 1.01 ± 0.022
ACGGGGGCGC | 0.986 ± 0.059
TTTTATCTTT | 1 ± 0.015
GATTATTGGT | 0.987 ± 0.031
CTTGGGGCAT | 1.025 ± 0.008
TTGTGTCGGG | 0.998 ± 0.02
CTTGTATTAC | 1.16 ± 0.024
GGGGAAGGG | 1.12 ± 0.24
GGGGACTTTG | 1.09 ± 0.073
TTTTAACCGG | 0.974 ± 0.025
TGTCGGTTTT | 0.996 ± 0.037
AAGGTTGGAT | 0.987 ± 0.012
GTTAACGCGT | 1.02 ± 0.02
GCGGGAGGGG | 0.99 ± 0.054
GATGTCGAGA | 1.019 ± 0.0051
GTCGAGAGAA | 1.01 ± 0.011
TAAGTGTTTT | 0.994 ± 0.023
TTTTTCAGTA | 0.981 ± 0.016
GAGTAAAAAG | 0.99 ± 0.014
TATTAGGTCT | 0.991 ± 0.045
ATTTGACGGG | 1.03 ± 0.047
AAATGTTTGT | 1.006 ± 0.0099
TTAAGCTGAA | 0.961 ± 0.044

Sequence | switch fluorescence ratio
CAGTTTTCGG | 1 ± 0.021
GCGCTTTCAC | 1.53 ± 0.026
GCAGGTTGGC | 0.992 ± 0.029
TTGGTTTTTA | 0.98 ± 0.018
CGGTTTGTTA | 0.985 ± 0.037
CAGGGGATGT | 0.985 ± 0.013
AATTTTTAAG | 0.997 ± 0.011
GAGTATTATA | 1 ± 0.025
AAGTGGTGGG | 0.985 ± 0.024
TGTTGGGTGG | 0.9948 ± 0.00021
TTTTTATAAT | 1.01 ± 0.026
AAAATTGGGA | 1.01 ± 0.035
TTTATATTAG | 0.9889 ± 0.0075
GGTGTTGTTC | 1.01 ± 0.014
TTAATGCAAC | 1.01 ± 0.021
TAGGTCTTAA | 0.995 ± 0.013
TAAAGGAGGT | 1.01 ± 0.046
TTGGGGGGGT | 1 ± 0.03
CGTGCTGCAA | 4.91 ± 1.7
CTGGATCCTT | 1.05 ± 0.017
CGAATTACGT | 0.992 ± 0.016
CGAAAACGTG | 0.976 ± 0.012
CTGGGGGAAC | 1.004 ± 0.0049
GCTGGGGATA | 1.03 ± 0.032
GGGGGGCATC | 1.01 ± 0.024

Sequence | switch fluorescence ratio
ATGCCTGATA | 0.963 ± 0.029
ATGGGACGGT | 1.03 ± 0.036
TGAATGTATT | 1.03 ± 0.045
GGAAAGTACG | 1.16 ± 0.045
TTTTAAAACT | 1.05 ± 0.039
TGAAAAGCGC | 1.01 ± 0.024
CGCAGGCACG | 1.07 ± 0.052
AATAACTCCG | 1.224 ± 0.008
CATGTAGTCT | 1.04 ± 0.013
AGACACGAAT | 0.9811 ± 0.0068
CTGCGTGATG | 1.03 ± 0.011
GCCGCAGACA | 1.39 ± 0.1
GCTGGGAGGT | 0.984 ± 0.02
ATTCAGATCT | 1 ± 0.034
AGAAAAAAGC | 0.989 ± 0.015
ATGGGTTAGA | 1.05 ± 0.037
TTTTTGCGAA | 1.033 ± 0.0011
GTATAAATGT | 0.984 ± 0.051
CAGTGGGGGC | 1.05 ± 0.087
GGGGAAGGGA | 1 ± 0.031
AGTTGTTTG | 1.002 ± 0.0099
TGAAGTCGAC | 1 ± 0.068
CAGGAATGCG | 1.04 ± 0.055
TGGTTACTTC | 1.04 ± 0.028
ATTTTGTAAT | 1 ± 0.019
